Data taken from patent publication US20250163140A1 (Kyowa Kirin, published 2025).
Residue numbers refer to the chain shown, from its start. In names and notes the source's numbering stands.

T1: Recombinant Human FGF-23 (R&D Systems, Cat No. 2604-FG-025/CF) (human, UniProt Q9GZV9 25-251)
T1 construct: Bought protein
T1 sequence (looked up): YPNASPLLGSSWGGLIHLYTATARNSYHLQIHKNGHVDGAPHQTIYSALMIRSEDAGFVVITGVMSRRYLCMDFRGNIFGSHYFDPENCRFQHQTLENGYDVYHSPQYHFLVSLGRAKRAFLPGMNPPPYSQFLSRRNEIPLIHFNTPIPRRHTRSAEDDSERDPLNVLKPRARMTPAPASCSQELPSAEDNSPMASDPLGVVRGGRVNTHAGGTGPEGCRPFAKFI

B1: antibody A_A (antibody, human IgG1, name in EU numbering)
heavy: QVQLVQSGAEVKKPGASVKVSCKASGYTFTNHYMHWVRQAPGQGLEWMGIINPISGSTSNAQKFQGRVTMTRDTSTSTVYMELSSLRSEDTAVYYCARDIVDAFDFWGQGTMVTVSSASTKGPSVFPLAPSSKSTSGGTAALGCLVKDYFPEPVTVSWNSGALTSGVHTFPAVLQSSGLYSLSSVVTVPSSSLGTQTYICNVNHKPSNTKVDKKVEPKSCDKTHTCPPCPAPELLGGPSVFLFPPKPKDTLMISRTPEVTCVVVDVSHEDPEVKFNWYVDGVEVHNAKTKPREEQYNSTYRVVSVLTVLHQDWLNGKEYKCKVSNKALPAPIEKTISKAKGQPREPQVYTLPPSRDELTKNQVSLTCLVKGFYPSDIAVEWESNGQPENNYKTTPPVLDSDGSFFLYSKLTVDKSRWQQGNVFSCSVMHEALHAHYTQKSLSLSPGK
light: AIQLTQSPSSLSASVGDRVTITCRASQGISSALVWYQQKPGKAPKLLIYDASSLESGVPSRFSGSGSGTDFTLTISSLQPEDFATYYCQQFNDYFTFGPGTKVDIK
notes: not shown: human kappa chain constant region; copies: 2 + 2
B2: antibody A_IgG4PE_R409K (antibody)
heavy: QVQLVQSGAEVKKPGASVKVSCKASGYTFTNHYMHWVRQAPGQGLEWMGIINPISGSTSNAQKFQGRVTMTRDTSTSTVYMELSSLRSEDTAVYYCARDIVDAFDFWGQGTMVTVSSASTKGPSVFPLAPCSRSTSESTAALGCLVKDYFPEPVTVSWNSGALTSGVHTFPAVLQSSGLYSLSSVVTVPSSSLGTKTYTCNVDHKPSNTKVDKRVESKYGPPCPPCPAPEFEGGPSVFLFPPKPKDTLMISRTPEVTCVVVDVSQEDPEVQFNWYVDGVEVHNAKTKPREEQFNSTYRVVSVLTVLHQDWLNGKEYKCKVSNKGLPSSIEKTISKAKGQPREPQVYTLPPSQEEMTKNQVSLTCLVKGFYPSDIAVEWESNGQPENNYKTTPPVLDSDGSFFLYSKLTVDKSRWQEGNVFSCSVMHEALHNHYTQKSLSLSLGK
VL: B1 light
notes: copies: 2 + 2
B3: antibody A_G2 (antibody, human IgG2)
heavy: QVQLVQSGAEVKKPGASVKVSCKASGYTFTNHYMHWVRQAPGQGLEWMGIINPISGSTSNAQKFQGRVTMTRDTSTSTVYMELSSLRSEDTAVYYCARDIVDAFDFWGQGTMVTVSSASTKGPSVFPLAPCSRSTSESTAALGCLVKDYFPEPVTVSWNSGALTSGVHTFPAVLQSSGLYSLSSVVTVPSSNFGTQTYTCNVDHKPSNTKVDKTVERKCCVECPPCPAPPVAGPSVFLFPPKPKDTLMISRTPEVTCVVVDVSHEDPEVQFNWYVDGVEVHNAKTKPREEQFNSTFRVVSVLTVVHQDWLNGKEYKCKVSNKGLPAPIEKTISKTKGQPREPQVYTLPPSREEMTKNQVSLTCLVKGFYPSDIAVEWESNGQPENNYKTTPPMLDSDGSFFLYSKLTVDKSRWQQGNVFSCSVMHEALHNHYTQKSLSLSPGK
light: B1 light
notes: domain: CH; CH of antibody A replaced by a CH of human IgG2; also called A2_G2; not shown: human kappa chain constant region; copies: 2 + 2
B4: antibody A_IgG4PE_R409K_P (antibody)
heavy: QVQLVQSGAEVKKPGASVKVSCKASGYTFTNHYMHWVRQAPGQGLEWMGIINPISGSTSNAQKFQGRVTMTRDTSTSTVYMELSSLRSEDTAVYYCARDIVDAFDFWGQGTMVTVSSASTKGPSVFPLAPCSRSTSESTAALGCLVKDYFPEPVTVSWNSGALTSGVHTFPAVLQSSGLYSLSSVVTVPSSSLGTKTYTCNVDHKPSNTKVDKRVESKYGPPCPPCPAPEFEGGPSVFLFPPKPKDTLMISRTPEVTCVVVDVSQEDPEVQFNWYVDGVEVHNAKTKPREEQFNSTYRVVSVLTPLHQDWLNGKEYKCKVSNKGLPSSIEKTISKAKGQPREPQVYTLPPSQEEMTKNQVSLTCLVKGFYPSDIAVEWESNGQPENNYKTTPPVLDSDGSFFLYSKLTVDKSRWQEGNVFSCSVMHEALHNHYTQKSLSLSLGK
light: B1 light
notes: as for B1
B5: antibody A_G2_A (antibody, human IgG2, name in EU numbering)
heavy: B3 heavy with A374S, N430A
light: B1 light
notes: domain: CH; Human IgG2 CH with modification (10-3), EU index; not shown: human kappa chain constant region; copies: 2 + 2
B6: antibody A_YTE (antibody, IgG1)
heavy: QVQLVQSGAEVKKPGASVKVSCKASGYTFTNHYMHWVRQAPGQGLEWMGIINPISGSTSNAQKFQGRVTMTRDTSTSTVYMELSSLRSEDTAVYYCARDIVDAFDFWGQGTMVTVSSASTKGPSVFPLAPSSKSTSGGTAALGCLVKDYFPEPVTVSWNSGALTSGVHTFPAVLQSSGLYSLSSVVTVPSSSLGTQTYICNVNHKPSNTKVDKKVEPKSCDKTHTCPPCPAPELLGGPSVFLFPPKPKDTLYITREPEVTCVVVDVSHEDPEVKFNWYVDGVEVHNAKTKPREEQYNSTYRVVSVLTVLHQDWLNGKEYKCKVSNKALPAPIEKTISKAKGQPREPQVYTLPPSRDELTKNQVSLTCLVKGFYPSDIAVEWESNGQPENNYKTTPPVLDSDGSFFLYSKLTVDKSRWQQGNVFSCSVMHEALHNHYTQKSLSLSPGK
light: B1 light
notes: IgG1 CH with M252Y/S254T/T256E (EU index); not shown: human kappa chain constant region; copies: 2 + 2
B7: antibody A_P (antibody, human IgG1, name in EU numbering)
heavy: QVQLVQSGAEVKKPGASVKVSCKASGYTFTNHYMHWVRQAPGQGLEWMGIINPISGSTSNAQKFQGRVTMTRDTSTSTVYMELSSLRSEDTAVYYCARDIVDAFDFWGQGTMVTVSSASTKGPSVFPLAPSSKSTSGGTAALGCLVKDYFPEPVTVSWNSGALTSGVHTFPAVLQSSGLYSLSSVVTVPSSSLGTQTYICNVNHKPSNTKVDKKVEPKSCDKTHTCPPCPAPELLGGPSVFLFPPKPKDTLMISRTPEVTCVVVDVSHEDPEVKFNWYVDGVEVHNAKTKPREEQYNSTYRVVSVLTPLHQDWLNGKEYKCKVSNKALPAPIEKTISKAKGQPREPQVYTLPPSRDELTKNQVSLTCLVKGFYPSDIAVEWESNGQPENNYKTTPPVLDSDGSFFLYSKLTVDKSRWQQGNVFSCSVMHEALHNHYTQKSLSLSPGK
light: B1 light
notes: positions are EU index; not shown: human kappa chain constant region; copies: 2 + 2
B8: antibody A_IgG4PE_R409K_YTE (antibody)
heavy: QVQLVQSGAEVKKPGASVKVSCKASGYTFTNHYMHWVRQAPGQGLEWMGIINPISGSTSNAQKFQGRVTMTRDTSTSTVYMELSSLRSEDTAVYYCARDIVDAFDFWGQGTMVTVSSASTKGPSVFPLAPCSRSTSESTAALGCLVKDYFPEPVTVSWNSGALTSGVHTFPAVLQSSGLYSLSSVVTVPSSSLGTKTYTCNVDHKPSNTKVDKRVESKYGPPCPPCPAPEFEGGPSVFLFPPKPKDTLYITREPEVTCVVVDVSQEDPEVQFNWYVDGVEVHNAKTKPREEQFNSTYRVVSVLTVLHQDWLNGKEYKCKVSNKGLPSSIEKTISKAKGQPREPQVYTLPPSQEEMTKNQVSLTCLVKGFYPSDIAVEWESNGQPENNYKTTPPVLDSDGSFFLYSKLTVDKSRWQEGNVFSCSVMHEALHNHYTQKSLSLSLGK
VL: B1 light
notes: copies: 2 + 2
B9: antibody A_G2_YTE (antibody)
heavy: B3 heavy with M248Y, S250T, T252E
light: B1 light
notes: as for B1
B10: antibody A_G2_P (antibody, human IgG2, name in EU numbering)
heavy: B3 heavy with V304P, A374S
light: B1 light
notes: domain: CH; Human IgG2 CH with modification (10-4), EU index; not shown: human kappa chain constant region; copies: 2 + 2
B11: antibody A_IgG4PE_R409K_QL (antibody)
chain 1: B8 heavy with T247Q, Y249M, T251S, E253T, M425L
chain 2: not shown
B12: antibody A_G2AAAS_A (antibody)
chain 1: B3 heavy with V231A, G233A, P327S, A374S, N430A
chain 2: not shown
B13: antibody A_G2AAAS_QL (antibody)
chain 1: B3 heavy with V231A, G233A, T246Q, P327S, A374S, M424L
chain 2: not shown
B14: antibody I100G (antibody, human IgG1, V domains shown)
VH: QVQLVQSGAEVKKPGASVKVSCKASGYTFTNHYMHWVRQAPGQGLEWMGIINPISGSTSNAQKFQGRVTMTRDTSTSTVYMELSSLRSEDTAVYYCARDGVDAFDFWGQGTMVTVSS
VL: B1 light
notes: also called modified antibody I100
B15: antibody I100R (antibody, human IgG1, V domains shown)
VH: B14 VH with G100R
VL: B1 light
notes: as for B14
B16: antibody I100H (antibody, human IgG1, V domains shown)
VH: B14 VH with G100H
VL: B1 light
notes: as for B14
B17: antibody I100N (antibody, human IgG1, V domains shown)
VH: B14 VH with G100N
VL: B1 light
notes: as for B14
B18: antibody I100D (antibody, human IgG1, V domains shown)
VH: B14 VH with G100D
VL: B1 light
notes: as for B14
B19: antibody D105Y (antibody, human IgG1, V domains shown)
VH: B14 VH with G100I, D105Y
VL: B1 light
notes: also called modified antibody D105
B20: antibody A-1 (antibody, V domains shown)
VH: B14 VH with I50L, I54W, S55H, S57T, T58F, G100A
VL: B1 light
notes: VH J2H2B9_A; not shown: human kappa chain constant region
B21: antibody A-4 (antibody, V domains shown)
VH: B14 VH with G100Y
VL: B1 light with F91M, N92Y, Y94D, T96N
notes: VL L3G12; not shown: human kappa chain constant region
B22: antibody A-6 (antibody, V domains shown)
VH: B14 VH with G100Y
VL: B1 light with G28D, I29V, S31T, V34L
notes: VL L1H8; not shown: human kappa chain constant region
B23: antibody A-2 (antibody, V domains shown)
VH: B14 VH with I50L, I54W, S55H, S57T, T58F, G100Y
VL: B1 light
notes: VH J2H2B9_Y; not shown: human kappa chain constant region
B24: antibody A-8 (antibody, V domains shown)
VH: B14 VH with G100Y
VL: B1 light with F91L, N92Y, Y94D, T96D
notes: VL 2L3H7; not shown: human kappa chain constant region
B25: antibody A-3 (antibody, V domains shown)
VH: B14 VH with G100A
VL: B1 light with F91M, N92Y, Y94D, T96N
notes: as for B21
B26: antibody A-5 (antibody, V domains shown)
VH: B14 VH with G100A
VL: B1 light with G28D, I29V, S31T, V34L
notes: as for B22
B27: antibody A-7 (antibody, V domains shown)
VH: B14 VH with G100A
VL: B1 light with F91L, N92Y, Y94D, T96D
notes: as for B24

These binders were tested against T2, monkey FcRn (monkey FcRn-His tag with monkey β2 microglobulin) (cynomolgus monkey, UniProt Q8SPV9 24-297; Q8SPW0 21-119) (assay: SPR pH 6, FcRn-His captured by anti-His, antibody analyte).
T2 construct: also called cyno FcRn; cynomolgus monkey FcRn extracellular domain His-tag body
T2 sequence (Q8SPV9 other isoform, or with tags, fused parts or gaps limits assumed, chain 1 of 2): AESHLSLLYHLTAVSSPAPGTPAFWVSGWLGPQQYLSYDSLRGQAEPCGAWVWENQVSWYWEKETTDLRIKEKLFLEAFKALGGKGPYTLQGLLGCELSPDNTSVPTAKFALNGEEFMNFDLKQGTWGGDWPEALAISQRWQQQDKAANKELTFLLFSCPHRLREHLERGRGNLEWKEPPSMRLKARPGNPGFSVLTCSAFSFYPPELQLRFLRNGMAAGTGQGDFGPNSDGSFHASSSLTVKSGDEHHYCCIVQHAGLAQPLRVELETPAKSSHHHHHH
T2 sequence (Q8SPW0 21-119 limits assumed, chain 2 of 2): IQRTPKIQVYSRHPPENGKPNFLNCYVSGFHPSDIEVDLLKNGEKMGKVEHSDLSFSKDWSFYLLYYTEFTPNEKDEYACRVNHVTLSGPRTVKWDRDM

**Q.** For B1, which Kd is on record?
**A.** 155 nM

**Q.** Which Kd does the source give for B2 here?
**A.** 324 nM

**Q.** Which Kd does the source give for B3 here?
**A.** 233 nM

**Q.** How did the Kd turn out when B4 was run?
**A.** 76.9 nM

**Q.** For B5, which Kd is on record?
**A.** 133 nM

**Q.** Which Kd does the source give for B6 here?
**A.** 115 nM

**Q.** B7 was tested. Which Kd did it give?
**A.** 60.2 nM

**Q.** With B8 as the binder, how does the Kd read?
**A.** 123 nM

**Q.** B9 was tested. Which Kd did it give?
**A.** 39.1 nM

**Q.** With B10 as the binder, how does the Kd read?
**A.** 78.2 nM

**Q.** For B11, which Kd is on record?
**A.** 87 nM

**Q.** With B12 as the binder, how does the Kd read?
**A.** 129 nM

**Q.** For B13, which Kd is on record?
**A.** 69 nM

What follows are binders tested against T3, human FcRn (human FcRn-His tag with human β2 microglobulin) (human, UniProt P55899 24-297; P61769 21-119) in the same assay as above.
T3 construct: also called h FcRn; hFcRn
T3 sequence (P55899 other isoform, or with tags, fused parts or gaps limits assumed, chain 1 of 2): as the sequence (Q8SPV9 other isoform, or with tags, fused parts or gaps limits assumed, chain 1 of 2) above, with D39N, Q44E, S99G, G189S, N190S, M217L, T269S counted along it
T3 sequence (P61769 21-119 limits assumed, chain 2 of 2): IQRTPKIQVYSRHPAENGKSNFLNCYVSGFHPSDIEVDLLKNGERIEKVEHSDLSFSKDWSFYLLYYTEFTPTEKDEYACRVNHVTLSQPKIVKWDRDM

**Q.** B1 was tested. Which Kd did it give?
**A.** 308 nM

**Q.** For B2, which Kd is on record?
**A.** 912 nM

**Q.** For B3, which Kd is on record?
**A.** 624 nM

**Q.** Which Kd does the source give for B4 here?
**A.** 192 nM

**Q.** How did the Kd turn out when B5 was run?
**A.** 286 nM

**Q.** How did the Kd turn out when B6 was run?
**A.** 159 nM

**Q.** With B7 as the binder, how does the Kd read?
**A.** 183 nM

**Q.** Which Kd does the source give for B8 here?
**A.** 227 nM

**Q.** For B9, which Kd is on record?
**A.** 186 nM

**Q.** B10 was tested. Which Kd did it give?
**A.** 234 nM

**Q.** Which Kd does the source give for B11 here?
**A.** 265 nM

**Q.** B12 was tested. Which Kd did it give?
**A.** 247 nM

**Q.** B13 was tested. Which Kd did it give?
**A.** 213 nM

Each binder was assayed against T1, Recombinant Human FGF-23 (R&D Systems, …) (assay: SPR, antibody captured by anti-human IgG, FGF-23 analyte).

**Q.** For B14, which Kd is on record?
**A.** 0.149 nM

**Q.** Which Kd does the source give for B15 here?
**A.** 0.222 nM

**Q.** With B16 as the binder, how does the Kd read?
**A.** 0.0672 nM

**Q.** Which Kd does the source give for B17 here?
**A.** 0.0934 nM

**Q.** With B18 as the binder, how does the Kd read?
**A.** 0.219 nM

The binders below were run against T1, Recombinant Human FGF-23 (R&D Systems, …) (assay: cell-based or functional assay).

**Q.** How did the “FGF23 neutralizing activity IC50 (luciferase promoter assay)” value (“FGF23 neutralizing activity IC50” for short) turn out when B14 was run?
**A.** > 100 ng/mL

**Q.** Which “FGF23 neutralizing activity IC50” value does the source give for B15 here?
**A.** 82.5 ng/mL

**Q.** How did the “FGF23 neutralizing activity IC50” value turn out when B19 was run?
**A.** 21.6 ng/mL

**Q.** How did the “FGF23 neutralizing activity IC50” value turn out when B16 was run?
**A.** 8.9 ng/mL

**Q.** How did the “FGF23 neutralizing activity IC50” value turn out when B17 was run?
**A.** 26.2 ng/mL

**Q.** Which “FGF23 neutralizing activity IC50” value does the source give for B18 here?
**A.** > 100 ng/mL

Target: T1, Recombinant Human FGF-23 (R&D Systems, …)
Assay: cell-based or functional assay
Remark: another data set of the same source

**Q.** With B20 as the binder, how does the “FGF23 neutralizing activity IC50” value read?
**A.** 3.5 ng/mL

**Q.** B21 was tested. Which “FGF23 neutralizing activity IC50” value did it give?
**A.** 1.9 ng/mL

**Q.** How did the “FGF23 neutralizing activity IC50” value turn out when B22 was run?
**A.** 3.6 ng/mL

**Q.** How did the “FGF23 neutralizing activity IC50” value turn out when B23 was run?
**A.** 3.4 ng/mL

**Q.** B24 was tested. Which “FGF23 neutralizing activity IC50” value did it give?
**A.** 2.4 ng/mL

**Q.** Which “FGF23 neutralizing activity IC50” value does the source give for B25 here?
**A.** 2.7 ng/mL

**Q.** How did the “FGF23 neutralizing activity IC50” value turn out when B26 was run?
**A.** 1.9 ng/mL

**Q.** How did the “FGF23 neutralizing activity IC50” value turn out when B27 was run?
**A.** 3.2 ng/mL

Target: T1, Recombinant Human FGF-23 (R&D Systems, …)
Assay: SPR, antibody captured by anti-human IgG, FGF-23 analyte
Remark: another data set of the same source

**Q.** For B19, which Kd is on record?
**A.** 0.102 nM

What follows are binders tested against T1, Recombinant Human FGF-23 (R&D Systems, …) (assay: SPR, antibody captured on Protein A chip, FGF-23 analyte).

**Q.** With B20 as the binder, how does the Kd read?
**A.** 0.00822 nM

**Q.** B21 was tested. Which Kd did it give?
**A.** 0.00874 nM

**Q.** For B22, which Kd is on record?
**A.** 0.0113 nM

**Q.** How did the Kd turn out when B23 was run?
**A.** 0.00808 nM

**Q.** B24 was tested. Which Kd did it give?
**A.** 0.0067 nM

**Q.** B25 was tested. Which Kd did it give?
**A.** 0.00827 nM

**Q.** B26 was tested. Which Kd did it give?
**A.** 0.00361 nM

**Q.** For B27, which Kd is on record?
**A.** 0.0161 nM
